Assay results taken from the DeepSol protein solubility set.

Experiment: soluble on expression in E. coli; label from the status in PepcDB or PDB records

Sequence	soluble on expression in E. coli
VTLRVVPESLAGASAAIEAVTARLAAAHAAAAPFIAAVIPPGSDSVSVCNAVEFSVHGSQHVAMAAQGVEELGRSGVGVAESGASYAARDALAAASYLSGGL	not soluble
MSLARQNYHSEVEAAVNKQINIELYASYVYLSMSFYFDRDDVALPNIAKFFKEQSDEEREHATELMRVQNLRGGRVVLQDIQKPENDEWGTALKAFEAALALEKFNNESLLKLHSTAGNHNDAHLTDFIEEKYLDEQVKSINEFARMVANLKRVGPGVGEYVFDKEHFSD	soluble
SMKEPSQQRVKRWGFGMDEALKDPVGREQFLKFLESEFSSENLRFWLAVEDLKKRPIKEVPSRVQEIWQEFLAPGAPSAINLDSKSYDKTTHNVKEPGRYTFEDAQEHIYKLMKSDSYPRFIRSSAYQELLQAKKKSGNSMDRRTS	soluble
LITPQYKSEAKLYVLSKETTLTSLADLQIGSQLTQDYKILVGSRPVLQGVVDHMKLDMTYRKLEKKLTIDNPNNTRILTLTIKDPNPYLAKSIVDEVANTASDYIGEIMEMVPPKLIEDGEVASEKASPNVLKNT	not soluble
MGSDKIHHHHHHMDSSIDLSLAYADSGVGEVLDQLDCELIGLKPVKTRIREIAALLLVDRARKDLDLASTMPSLHMSFTGRPGTGKTTVAIRISQILHRLGYLRKGHVVTVTRDDLVGQYVGHTAPKTREMIKRAQGGVLFIDEAYYLYKPGNERDYGAEAIEILLQDMESRRGDFVVIFAGYKDKMDAFYQSNPGLSSRVAHHIDFPDYSNRELLAIAQLFLVQQNYYFGDEAEGIFEDYIERRRQLPFFANARSIRNALDRTRLRQANRLFARMGEPLSRDELMTIEPADILASRVFQGEVEGRHPTQPLMESSE	not soluble
MSLYFLLQKVILPNIDLCTEEQLYFRTQGGKYNYTSRNLLVPRHKVAYFDTFFNAFSIKKWKKYTTLTSLFLRVNIIGRGTITVRHKENGVIRVLKQIDFKSSCNISDEIEIDISKINFGYIYVEWQSDEDSVLNGFELLTKDHVSKSSMALVITTYNRKEAVTKTINRINKTLLTQSEFKDRFKLIVVNNGEAINHPSGNGIIVINNENLGGSGGFMRGLIEAGKINDVKHVIFMDDDGSCEIESICRTHAFLLMAKDKNTVVTGCMLFEDNPAIIHESGAIWHRDFLHYPDKHYLDAREIDSLDTFDNERKIGYGGWWFFAFNINAIEYYSFPFFVRGDDLLFGYMHKKHNIVTLNGVASWQMDFERKISVLNSYLNFRTVAVPALISKREGHHHHHH	not soluble
MSKIEQIITEIEEYIDNCKFQPLSTSKIIVNKDEIDELLAELRLRTPDEIKKYQKIIANKDAILNDAKERAEAMVSEATAHINQLVSEHEIMQKAYEEANQIIEQAQAEAQGILDSATTEANDLRTRAMQYTDDILANVQSILSTGMDSFESAQNTMMTSLNSSLNVVVESRKELGGAEDEESVENGEDDNLSVDLL	not soluble
MGSDKIHHHHHHGDIYNGTTMGVTFATGTQSVSFPSTGYEGFDVEVLRAKSSEATTINLSATLVVGDKEQELPASITVPSSVSFAAGEFKTNIHVTVGDITPGQNYKVKISLPEEMVTIDQTSDKVITVYRDYTFSSLGTGTFKSAAMAEEGEDFTTWEVEVQKADQISWYKAMNLYEKGYNIVFKVNEANEVTVESQPAWKHASYGEVFVSGKGALEDGVITVKLSHDVPNVGGFGEFKEILYLPAK	not soluble
MGSRNIVRAVLEEKKTEAITEVDEKGITCVMKFGGSSVASAERMKEVADLILTFPEESPVIVLSAMGKTTNNLLLAGEKAVSCGVSNASEIEELSIIKELHIRTVKELNIDPSVILTYLEELEQLLKGIAMMKELTLRTRDYLVSFGECLSTRIFAAYLNTIGVKARQYDAFEIGFITTDDFTNGDILEATYPAVAKRLYDDWMHDPAVPIVTGFLGKGWKTGAVTTLGRGGSDLTATTIGKALGLKEIQVWKDVDGVLTCDPTIYKRATPVPYLTFDEAAELAYFGAQVLHPQSMRPAREGEIPVRVKNSYNPKAPGTIITKTRDMTKSILTSIVLKRNVTMLDIASTRMLGQVGFLAKVFSIFEELGISVDVVATSEVSISLTLDPSKLWSRELIQQELDHVVEELEKIAVVNLLKGRAIISLIGNVQHSSLILERAFHVLYTKGVNVQMISQGASKVNISFIVNEAEAEGCVQALHKSFFESGDLSELLIQPRLGNGSPVRTLQVEN	soluble
PIEGEKVDLRIMSTTDLHTNLVNYDYYQDKESQKIGLAKTAVLIEEAKKENPNTVLVDNGDVIQGTPLGTYKAIVKPVAENEEHPMYQAMNALGYDASTLGNHEFNYGLDYLKKIIATANLPILNANVLDFKTHQPVFKTYDIITKTFKDSTGRAVALNIGITGIVPPQILNWDKANLEGKVIVKDSVKAIEEIVPTMRAKGADVILVLSHSGIGDDRYEEGEENVGYQIASIKGVDAVVTGHSHAEFPSGNGTGFYEKYTGVDGINGKINGTPVTMAGKYGDHLGIIDLGLSYTNGKWQVSESSAKIRKIDMNSTTADERIIALAKEAHDGTINYVRQ	not soluble
MATVAELKAVLKDTLEKKGVLGHLKARIRAEVFNALDDDREPRPSLSHENLLINELIREYLEFNKYKYTASVLIAESGQPVVPLDRQFLIHELNAFEESKDNTIPLLYGILAHFLRGTKDGIQNAFLKGPSLQPSDPSLGRQPSRRKPMDDHLRKEEQKSTNIEDLHVSQAVNR	soluble
MLVVSIAGSPSVRSRSGVLLERARDWLSRRGVEVASHQVLDFPAEDLLRARLDSPPVLALAEQIGRADGLLVATPVYKASFSGALKVLLDLLPERALEHKVVLPFATGGSSAHMLAVDYALKPVLAALKAQEVLHGVFAVDKQIAYATESDPARLEPVLEQRLENALETFHLALSRRPQPIDPQLLNERLVNARWSI	soluble
MSAKFQQETLKSRFAQAKVLVVGDVMLDRYWFGDVSRISPEAPVPVAKIGRIDQRAGGAANVARNIASLGGRAGLLSVTGNDEAADALDALMVQDGVASYLMRDKQIATTVKLRVVARNQQLIRLDFEEHPNCEVLEQIKQKYREILPEYDAIIFSDYGKGGLSHISDMIDWAKHAGKTVLIDPKGDDYEKYVGATLITPNRAELKEVVGSWKNESELTEKAQNLRRHLDLTAVLLTRSEEGMTLFSEGEPIYQPTRAQEVYDVSGAGDTVIAGMGLGLAAGCTMPEAMYLANTAAGVVVAKLGTAVCSFAELIKALSGQSTM	not soluble
MNDDLCYKLNYLARLILSKVNEKIKPHGVTQGQLPVLCCLHDAEGQTQAELCKNIQVEQPTMANTLRRMERDGLIFRTASDKDKRQSRVYITERTRPTVEALQEKRDEVVAAMVRHMSPEDLATFTRLLDVATKALENPETE	not soluble
MNEKIEQAIREMGFKNFTEVQSKTIPLMLQGKNVVVRAKTGSGKTAAYAIPILELGMKSLVVTPTRELTRQVASHIRDIGRYMDTKVAEVYGGMPYKAQINRVRNADIVVATPGRLLDLWSKGVIDLSSFEIVIIDEADLMFEMGFIDDIKIILAQTSNRKITGLFSATIPEEIRKVVKDFITNYEEIEACIGLANVEHKFVHVKDDWRSKVQALRENKDKGVIVFVRTRNRVAKLVRLFDNAIELRGDLPQSVRNRNIDAFREGEYDMLITTDVASRGLDIPLVEKVINFDAPQDLRTYIHRIGRTGRMGRKGEAITFILNEYWLEKEVKKVSQKA	soluble
MSLQRYFIELTKQQIEEAPTFSITGEEVHHIVNVMRMNEGDQIICCSQDGFEAKCELQSVSKDKVSCLVIEWTNENRELPIKVYIASGLPKGDKLEWIIQKGTELGAHAFIPFQAARSVVKLDDKKAKKKRERWTKIAKEAAEQSYRNEVPRVMDVHSFQQLLQRMQDFDKCVVAYEESSKQGEISAFSAIVSSLPKGSSLLIVFGPEGGLTEAEVERLTEQDGVTCGLGPRILRTETAPLYALSAISYQTELLRGDQEGGSHHHHHH	soluble
MSLIEFNKKTNTLEQVQYKYTLQDVSEPNLYRDIFSYDEIPKCTFNHRKVPMAPPDEIWITDTTFRDGQQSRAPYTVEQIVHLYDLLHKLGGPKGIIRQCEFFLYSDRDKQAVYKCLERGYKYPEVTSWIRATKSDFQLAKDMGMKESGILVSCSDYHIFKKLNMTRKQALEHYMSIVKSAIEVGIRPRCHFEDITRADFYGFVVPFAIELRKLMEESGVPIKIRACDTLGYGVSYPGAALPRSVPGIIYGLRHYAGFPSELIEWHGHNDFYKAVCNAATAWLYGASAVNCSLLGIGERTGNTPLEAMVIEYAQLRGTTDSMDTTVITEIAEYYEKELGYQIPPRTPFVGKHFNVTQAGIHADGLLKDEEIYNIFDTAKLLNRPVGVAINQTSGLAGIAHWINSHFGLEGAKRIDKRDERIVKIKEWVDEQYKAGRVTSIGDDELEEVIRKLAPEIFDLALEGHHHHHH	soluble
MSLKIHCLKLKNKELNKEVAFYLTSIIRQALKNTEYKDQISSTVLPDIKIKLPIDSRGTPDWNYMERYRDREGHHHHHH	soluble
MGSDKIHHHHHHMRYQNTYAQLDTRLYHEQLPNPLDNPRAGHFNNQVADQLGWTKAADLMARWVEILGGQYVPAEFQPLSMAYAGHQFGQWAGQLGDGRGLLMTQVLDKNNQLQDLHLKGAGLTPYSRMGDGRAVLRSTIREYLCGHALTQLGIASSNALGFVVSDTKVRRERLEAGAALMRVADSHIRLGHVEWIASFAPDLLAEFTDYMIDTYYPECRDSEKPVLAFLQAVVERTARMIADWQLIGFAHGVMNTDNLSITGSTLDFGPFGFMERFNPAWINNHSDHSGRYAYQNQPAIGHWNLNVWLPHFMRLTQAGVTRETLADCLAPYEATFMQHYQQGLCRKLGLPHQRESLSLAFEWLTLLEDNLLDYTNSFRALLGLIAPNEHLYEQQLLATMTAELNPEAQQVWQVWSTRYLAQIQQVSITQAIEEMQASNPIYILRNSMAQRVIVAAEQGQFEELNRVFDLLAKPYTLQDSAIELDTLPPAPHAPQMPISCSS	not soluble
MNALKQAVRTYARCHANRDGLAVTTVPGLRTMCVEDPAGDLHSVYRPLVCFVLQGAKRMIVGSEERVFYGGQSVIVAADMPVVGRIVEASSGAPYLAIAVELEMALLREVAAQIGDTCSLRSSGMQTLFAEDTEGAMLDCASRLMHLLDRPDAVPILRPGIMRELHYWLLSGPHGPALRTLADPDSYAGRLAAAIAILRTEYRSRVPVERLAAAAAMSLTAFHKHFKMMTSLTPGQYQKRLRLIEARRLMLDQGFSASNAAFEVGYESVSQFTREYGRLFNMPPKQDALRARAISSIFKHSQADALGAELH	not soluble
MPPQKSKALWYAQLELGFRFDGQRTIMNHRKHHGPVRVQKMLWPEKTGVCHAIIVHPPAGIAGGDHLTFQVSTERKAHAVVTTPGAGKWYKTNGKQAFQHIYLNIANDSTLEWLPQETMLFDAAYAQSETIIHLDQTASFMGWDMLVLGRQARLETFEQGCYANRFKLYRNHKLLVADTLRFKGKDRWLSSCLGMNGHAVMGSFWAVAPEKYRATLYLEQHIELIRELMMRMDVPVTLTLLDDVVCARFLGDDVRACHDAFAAIRARLRRYWFDLDEEFPRIWRTLEHHHHHH	not soluble
SLLCIALALGILVKYQNSQDVSSVKPDYFIDKQEDLISLNKDHYEIGIFQENEFDNNKSVSILEQKIQEIDDLNTSLNEQNLSSVEQNLSLEQNQSLEQNFILKDTNLTQDQNLTFNEDIHLNKISKKPKLAIIIDDMANASQVRGLKALNLKLNPSFFPPDKNHSETPKLALKFDFYMVHLPLAAINYNKPELDTLNPNDSKERIFKKIKQIKKDFKDLRYINNHTGSLFTSNEEAMRKLYEVLKNQNIFFVDSKTIGNSKANKIAKELNVPYIQRDVFLDNEDDVNYVKKQLESAVKLTQKKGFVIAIGHPRKNTFKALEQSKDLLKSVDLVYLSEIYGK	soluble
